Laboratory results reported in the supplement of paper PMC6757056.
± gives the standard deviation of the averaged measurements.

B1: library; a variant is named by its letters at N, in order (parent)
chain: GCUGUCACCGAGAAACUGUGAAGUAUAUCUUAAACCUGGGCACUUAAAAGAUAUAUGGAGUUAGUAGUGCAACCUGCUCGGUCUGAUGAGUCCNNNNNNGGACGAAACAGC

How the values were obtained:
cyclic di-GMP [1] = variants of: B1; test: normalized RNA/DNA level without ligand (relative to sTRSVctl = 100) (log10 (% of sTRSVctl)); HEK293T; ligand: cyclic di-GMP (c-di-GMP-II aptamer); higher = less ribozyme self-cleavage, higher mRNA level; conditions: reporter: mCherry (pCS4076), ligand present: no
Outline: (§1)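 For each 6-well well, 4 µg of library plasmid encoding mCherry-linked ribozyme switches, or eGFP-linked ones in some ligand experiments, was transfected into HEK293T. Any ligand was added 1 h before transfection, and RNA was extracted with EDTA 72 h after it, then reverse-transcribed, amplified, barcoded and sequenced. RNA level was obtained by dividing RNA reads by DNA reads, normalizing to a spiked-in non-cleaving sequence or to the top sequences, then scaling and log-transforming. The top set was 25 sequences, scaling was ×100 with log10, and ≥100 DNA reads were required.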

cyclic di-GMP [2] = variants of: B1; test: normalized RNA/DNA level with ligand (relative to sTRSVctl = 100) (log10 (% of sTRSVctl)); HEK293T; ligand: cyclic di-GMP (c-di-GMP-II aptamer); ligand concentration (+) RNA-Seq: 1 mM; higher = less ribozyme self-cleavage, higher mRNA level; conditions: reporter: mCherry (pCS4076), ligand present: yes
Outline: as §1

Row | Variant | normalized RNA/DNA level without ligand (log10) (cyclic di-GMP [1]) | normalized RNA/DNA level with ligand (log10) (cyclic di-GMP [2])
1 | GCUCUG | 1.629 ± 0.0036 | 1.8 ± 0.11
2 | CCUUUC | 1.7 ± 0.021 | 1.85 ± 0.098
3 | CACAGG | 1.68 ± 0.029 | 1.804 ± 0.0089
4 | UUUGCC | 1.838 ± 0.011 | 1.89 ± 0.079
5 | ACUUCG | 1.66 ± 0.067 | 1.79 ± 0.069
6 | CAUUCC | 1.781 ± 0.0028 | 1.87 ± 0.041
7 | GCCUGU | 1.69 ± 0.043 | 1.88 ± 0.12
8 | CGAGUU | 1.72 ± 0.08 | 1.84 ± 0.094
9 | UGCAUA | 1.7 ± 0.027 | 1.84 ± 0.084
10 | CCAGGA | 1.5 ± 0.088 | 1.71 ± 0.12
11 | GCAAUU | 1.48 ± 0.086 | 1.69 ± 0.1
12 | UCCAGG | 1.81 ± 0.046 | 1.9 ± 0.14
13 | GACUCA | 1.709 ± 0.011 | 1.83 ± 0.11
14 | GCUUGC | 1.77 ± 0.057 | 1.87 ± 0.17
15 | AGCCGA | 1.748 ± 0.014 | 1.84 ± 0.14
16 | GAGGUU | 1.73 ± 0.072 | 1.85 ± 0.083
17 | GGCUAG | 1.5161 ± 0.00019 | 1.683 ± 0.0052
18 | GGACAC | 1.71 ± 0.053 | 1.84 ± 0.13
19 | GUAGUG | 1.744 ± 0.0031 | 1.81 ± 0.12
20 | UUGUGC | 1.75 ± 0.027 | 1.86 ± 0.052
21 | UUAGUC | 1.72 ± 0.048 | 1.83 ± 0.086
22 | CACGCC | 1.81 ± 0.044 | 1.86 ± 0.022
23 | CACGCG | 1.73 ± 0.028 | 1.83 ± 0.062
24 | GCAGGA | 1.4 ± 0.075 | 1.56 ± 0.091

Row | Variant | normalized RNA/DNA level without ligand (log10) (cyclic di-GMP [1]) | normalized RNA/DNA level with ligand (log10) (cyclic di-GMP [2])
25 | AUUUAC | 1.733 ± 0.0013 | 1.88 ± 0.1
26 | CUGCCU | 1.64 ± 0.028 | 1.81 ± 0.15
27 | UUCUUG | 1.73 ± 0.045 | 1.86 ± 0.11
28 | UCUGAC | 1.677 ± 0.011 | 1.84 ± 0.12
29 | AAGCAU | 1.655 ± 0.0071 | 1.82 ± 0.1
30 | UACGAG | 1.674 ± 0.0019 | 1.82 ± 0.1
31 | AAUUAU | 1.67 ± 0.03 | 1.82 ± 0.1
32 | CGUAUU | 1.33 ± 0.083 | 1.57 ± 0.11
33 | CAGUGA | 1.52 ± 0.043 | 1.7 ± 0.12
34 | CAGUGC | 1.71 ± 0.05 | 1.81 ± 0.11
35 | UGAGCU | 1.76 ± 0.0029 | 1.87 ± 0.1
36 | GCCUAG | 1.74 ± 0.068 | 1.86 ± 0.16
37 | UCCUGU | 1.72 ± 0.018 | 1.88 ± 0.059
38 | AAAACC | 1.68 ± 0.014 | 1.81 ± 0.083
39 | CUACUC | 1.7 ± 0.034 | 1.83 ± 0.069
40 | GAGAAU | 1.663 ± 0.011 | 1.76 ± 0.098
41 | CUUCCC | 1.8 ± 0.024 | 1.88 ± 0.14
42 | CGGGCC | 1.92 ± 0.02 | 1.95 ± 0.067
43 | GAUAGU | 1.62 ± 0.045 | 1.78 ± 0.1
44 | CGACAC | 1.594 ± 0.0068 | 1.76 ± 0.11
45 | AGAGAG | 1.46 ± 0.09 | 1.64 ± 0.14
46 | GGCCUG | 1.82 ± 0.026 | 1.87 ± 0.19
47 | CAUUUU | 1.535 ± 0.0069 | 1.76 ± 0.16
48 | CUCCAA | 1.46 ± 0.096 | 1.72 ± 0.083

Row | Variant | normalized RNA/DNA level without ligand (log10) (cyclic di-GMP [1]) | normalized RNA/DNA level with ligand (log10) (cyclic di-GMP [2])
49 | CACAUC | 1.682 ± 0.0036 | 1.74 ± 0.034
50 | GCAUGA | 1.38 ± 0.1 | 1.54 ± 0.086
51 | CAGCGC | 1.731 ± 0.013 | 1.87 ± 0.15
52 | UGGAGC | 1.64 ± 0.062 | 1.81 ± 0.15
53 | AAUGCC | 1.73 ± 0.034 | 1.83 ± 0.11
54 | UGAUAA | 1.633 ± 0.011 | 1.8 ± 0.089
55 | ACGGCG | 1.75 ± 0.067 | 1.86 ± 0.1
56 | ACGGCC | 1.78 ± 0.063 | 1.87 ± 0.13
57 | UUAGAA | 1.56 ± 0.043 | 1.73 ± 0.088
58 | GCACCG | 1.72 ± 0.037 | 1.86 ± 0.11
59 | UCGUCG | 1.74 ± 0.03 | 1.88 ± 0.085
60 | GACGCA | 1.77 ± 0.055 | 1.88 ± 0.085
61 | UGUCCA | 1.8 ± 0.013 | 1.87 ± 0.068
62 | GCGUCA | 1.624 ± 0.0059 | 1.79 ± 0.15
63 | ACUCUG | 1.602 ± 0.0083 | 1.81 ± 0.096
64 | UUACAG | 1.707 ± 0.0067 | 1.86 ± 0.14
65 | GCGCAC | 1.51 ± 0.075 | 1.66 ± 0.075
66 | CUGCUC | 1.7 ± 0.0046 | 1.83 ± 0.14
67 | GACCCC | 1.8 ± 0.055 | 1.88 ± 0.14
68 | ACUCAA | 1.52 ± 0.029 | 1.71 ± 0.099
69 | ACUCAC | 1.699 ± 0.0095 | 1.81 ± 0.092
70 | UCUUGC | 1.752 ± 0.0056 | 1.88 ± 0.11
71 | GGUACU | 1.71 ± 0.067 | 1.82 ± 0.16
72 | GAGACG | 1.8 ± 0.045 | 1.83 ± 0.13

Row | Variant | normalized RNA/DNA level without ligand (log10) (cyclic di-GMP [1]) | normalized RNA/DNA level with ligand (log10) (cyclic di-GMP [2])
73 | UUAUUU | 1.75 ± 0.06 | 1.86 ± 0.17
74 | GAGAUA | 1.69 ± 0.015 | 1.76 ± 0.099
75 | UCCUAG | 1.71 ± 0.018 | 1.82 ± 0.087
76 | AGUCAC | 1.67 ± 0.062 | 1.81 ± 0.049
77 | GAAGUC | 1.59 ± 0.021 | 1.74 ± 0.038
78 | GUUAGC | 1.72 ± 0.02 | 1.85 ± 0.12
79 | GAGUGG | 1.84 ± 0.043 | 1.9 ± 0.12
80 | AAUCAA | 1.51 ± 0.1 | 1.73 ± 0.078
81 | CCGCAU | 1.6 ± 0.035 | 1.77 ± 0.096
82 | GGUAUU | 1.61 ± 0.056 | 1.8 ± 0.11
83 | UCUUUA | 1.65 ± 0.031 | 1.84 ± 0.11
84 | UUCUAC | 1.75 ± 0.025 | 1.9 ± 0.035
85 | AAAAAG | 1.45 ± 0.09 | 1.66 ± 0.082
86 | UACAGU | 1.62 ± 0.021 | 1.8 ± 0.069
87 | CAUGCU | 1.72 ± 0.056 | 1.84 ± 0.097
88 | UCGUGG | 1.738 ± 0.004 | 1.89 ± 0.11
89 | ACCGCA | 1.667 ± 0.015 | 1.8 ± 0.11
90 | ACAGUA | 1.31 ± 0.048 | 1.51 ± 0.15
91 | ACCAUU | 1.56 ± 0.032 | 1.79 ± 0.1
92 | GCGUAA | 1.44 ± 0.091 | 1.61 ± 0.096
93 | UAGAUC | 1.595 ± 0.014 | 1.82 ± 0.056
94 | UAGAUU | 1.6 ± 0.028 | 1.79 ± 0.067
95 | UUCCCG | 1.85 ± 0.1 | 1.94 ± 0.13
96 | GAUUAU | 1.62 ± 0.022 | 1.77 ± 0.07

Row | Variant | normalized RNA/DNA level without ligand (log10) (cyclic di-GMP [1]) | normalized RNA/DNA level with ligand (log10) (cyclic di-GMP [2])
97 | GUUGUC | 1.53 ± 0.11 | 1.73 ± 0.087
98 | AUUCAU | 1.74 ± 0.045 | 1.84 ± 0.11
99 | ACCCCA | 1.744 ± 0.012 | 1.86 ± 0.1
100 | GUUCCG | 1.82 ± 0.039 | 1.94 ± 0.1
101 | UACCGC | 1.73 ± 0.031 | 1.86 ± 0.14
102 | UAGCGC | 1.76 ± 0.019 | 1.88 ± 0.036
103 | CCCUUG | 1.643 ± 0.0095 | 1.81 ± 0.13
104 | CAUCUA | 1.4 ± 0.058 | 1.58 ± 0.066
105 | AUAUGC | 1.67 ± 0.021 | 1.83 ± 0.13
106 | UUGCAG | 1.8468 ± 0.00037 | 1.9 ± 0.042
107 | ACUGCG | 1.73 ± 0.069 | 1.83 ± 0.069
108 | UGCAGC | 1.77 ± 0.031 | 1.87 ± 0.11
109 | CUCAAC | 1.66 ± 0.033 | 1.8 ± 0.1
110 | ACCAGC | 1.63 ± 0.064 | 1.77 ± 0.079
111 | UAUUUC | 1.75 ± 0.0095 | 1.87 ± 0.1
112 | UUUAAA | 1.654 ± 0.0051 | 1.79 ± 0.081
113 | AUGUCC | 1.74 ± 0.02 | 1.86 ± 0.15
114 | ACCUGU | 1.72 ± 0.063 | 1.84 ± 0.13
115 | GCUGGC | 1.57 ± 0.052 | 1.71 ± 0.14
116 | CCGUCA | 1.592 ± 0.009 | 1.79 ± 0.047
